{"source": "patent US20230174655A1", "about": "(published 2023)", "binders": {"B1": {"name": "IL6R-BF146/IL6R-L (antibody, human IgG1, kappa)", "heavy": "QVQLQESGPGLVKPSETLSLTCAVSGHSISHDHAWSWVRQPPGEGLEWIGFISYSGITNYNPSLQGRVTISRDNSKNTLYLQMNSLRAEDTAVYYCARSLARTTAMDYWGEGTLVTVSSASTKGPSVFPLAPSSKSTSGGTAALGCLVKDYFPEPVTVSWNSGALTSGVHTFPAVLQSSGLYSLSSVVTVPSSSLGTQTYICNVNHKPSNTKVDKKVEPKSCDKTHTCPPCPAPEYLGDDSVFLFPPKPKDTLMISRTPEVTCVVVDVSHEDPEVKFNWYVDGVEVHNAKTKPREEQYNSTYRVVSVLTVLHQDWLNGKEYKCKVSNAALPAPIEKTISKAKGQPREPQVYTLPPSRDELTKNQVSLTCLVKGFYPSDIAVEWESNGQPENNYKTTPPVLDSDGSFFLYSKLTVDKSRWQQGNVFSCSVMHEALHNHYTQESLSLSP", "light": "not shown", "notes": "alteration printed: L234Y/G237D/P238D/K326A; copies: 2 + 2"}, "B2": {"name": "IL6R-PD042/IL6R-L (antibody, human IgG1, kappa)", "heavy": "B1 heavy with Y236W, D239G, M254Y, A328K, N436Y, E441K", "light": "not shown", "notes": "H chain: IL6R-F11 with P238D/L234W (EU numbering); also called P238D/L234W; copies: 2 + 2"}, "B3": {"name": "IL6R-BP142/IL6R-L (antibody, human IgG1, kappa)", "heavy": "B1 heavy with Y236L, D239G, A328N", "light": "not shown", "notes": "IgG1; P238D/K326N (EU) introduced into IL6R-B3"}}, "key": {"[1]": {"biological_target": "T1, FcγRIIa type H extracellular domain with C-terminal His tag (human, UniProt P12318 34-217)", "T1 construct": "extracellular domain; also called FcRIIaH; FcgRIIaH; not shown: His tag at the C terminus", "T1 sequence (looked up)": "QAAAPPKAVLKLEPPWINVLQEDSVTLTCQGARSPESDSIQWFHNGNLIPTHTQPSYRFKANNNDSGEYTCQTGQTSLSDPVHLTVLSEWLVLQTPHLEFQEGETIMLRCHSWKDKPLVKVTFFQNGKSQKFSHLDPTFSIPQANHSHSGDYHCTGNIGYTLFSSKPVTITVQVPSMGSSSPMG", "experiment": "SPR (Biacore), antibody captured, FcgR analyte", "text": "(§1) In the table, SEQ ID NO refers to the SEQ ID NO of the H chain of the evaluated variant, and alteration refers to the alteration introduced into IL6R-B3 (SEQ ID NO: 40). […] Furthermore, KD(IIaR)/KD(IIb) and KD(IIaH)/KD(IIb) in the table respectively represent the value obtained by dividing the KD value of each variant for FcγRIIaR by the KD value of each variant for FcγRIIb, and the value obtained by dividing the KD value of each variant for FcγRIIaH by the KD value of each variant for FcγRIIb. KD(IIb) of the parent polypeptide/KD(IIb) of the altered polypeptide refers to the value obtained by dividing the KD value of the parent polypeptide for FcγRIIb by the KD value of each variant for FcγRIIb.\n(§2) Kinetic analyses for calculating the KD values of each altered antibody for FcγR were performed according to the following method. First, antibodies of interest were captured onto the above-mentioned sensor chips, and an Fcγ receptor diluted with the running buffer was allowed to interact. The Biacore™ Evaluation Software was used to globally fit the measured results to the obtained sensorgram using the 1:1 Langmuir binding model, and the association rate constant ka (L/mol/s) and the dissociation rate constant kd (1/s) were calculated; and from those values the dissociation constants KD (mol/L) were calculated."}, "[2]": {"biological_target": "T2, FcγRIIb extracellular domain with C-terminal His tag (human, UniProt P31994 43-217)", "T2 construct": "extracellular domain; also called FcgRIIb; FcγRIIb extracellular region", "T2 sequence (looked up)": "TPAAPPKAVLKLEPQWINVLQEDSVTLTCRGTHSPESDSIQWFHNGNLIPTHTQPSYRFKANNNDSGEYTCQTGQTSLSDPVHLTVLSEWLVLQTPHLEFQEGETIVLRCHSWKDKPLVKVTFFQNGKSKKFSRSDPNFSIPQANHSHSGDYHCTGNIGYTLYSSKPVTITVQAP", "experiment": "SPR (Biacore), Reference Example 2", "text": "(§3) Furthermore, KD(IIaR)/KD(IIb) and KD(IIaH)/KD(IIb) in the table respectively show the value obtained by dividing the KD value of each variant for FcγRIIaR by the KD value of each variant for FcγRIIb, and the value obtained by dividing the KD value of each variant for FcγRIIaH by the KD value of each variant for FcγRIIb. KD(IIb) of the parent polypeptide/KD(IIb) of the altered polypeptide refers to a value obtained by dividing the KD value of the parent polypeptide for FcγRIIb by the KD value of each variant for FcγRIIb.\nas §2"}, "[3]": {"biological_target": "T3, FcγRIIa type R extracellular domain with C-terminal His tag (human, UniProt P12318 34-217)", "T3 construct": "extracellular domain; also called FcγRIIa R; FcγRIIaR", "T3 sequence (looked up)": "T1 sequence (looked up) with H134R", "experiment": "SPR (Biacore), Reference Example 2", "text": "as §3, §2"}, "[4]": {"biological_target": "T4, FcγRIIa type R extracellular domain with C-terminal His tag (human, UniProt P12318 34-217)", "T4 construct": "extracellular domain; also called FcgRIIaR; FcγRIIa R; not shown: His tag at the C terminus", "T4 sequence (looked up)": "T1 sequence (looked up) with H134R", "experiment": "SPR (Biacore), antibody captured on chip, FcγR extracellular domain as analyte", "text": "as §1, §2"}}, "note": "Changes are numbered by the printed parent chain. Names may count otherwise."}
{"binder": "B1", "values": [{"measurement": "Kd", "setting": "[1]", "value": 10, "unit": "µM"}]}
{"binder": "B2", "values": [{"measurement": "Kd", "setting": "[2]", "value": 20, "unit": "µM"}, {"measurement": "Kd", "setting": "[3]", "value": 16, "unit": "µM"}]}
{"binder": "B3", "values": [{"measurement": "Kd", "setting": "[4]", "value": 16, "unit": "µM"}]}
